According to publication PMC7909649, “Eukaryotic translation initiation factor 5A and its posttranslational modifications play an important role in proliferation and potentially in differentiation of the human enteric protozoan parasite Entamoeba histolytica” (PLoS Pathogens, 2021):

Target: T1, Entamoeba histolytica deoxyhypusine synthase 1 (EhDHS1) with amino-terminal His-tag, co-expressed with EhDHS2 (Entamoeba histolytica, UniProt C4LXB8 1-331)
T1 construct: Deoxyhypusine synthase isotype 1 (EhDHS1) of Entamoeba histolytica, EHI_098350, XP_653614; the catalytically active isotype; also called His-tag DHS1; EHI_098350; source: E. coli BL21 (DE3), co-expressed with EhDHS2 from pETDuet-EhDHS1/2; in lysate and copurified on Ni2+-NTA; not shown: His tag, N-terminal, kept
T1 sequence (looked up): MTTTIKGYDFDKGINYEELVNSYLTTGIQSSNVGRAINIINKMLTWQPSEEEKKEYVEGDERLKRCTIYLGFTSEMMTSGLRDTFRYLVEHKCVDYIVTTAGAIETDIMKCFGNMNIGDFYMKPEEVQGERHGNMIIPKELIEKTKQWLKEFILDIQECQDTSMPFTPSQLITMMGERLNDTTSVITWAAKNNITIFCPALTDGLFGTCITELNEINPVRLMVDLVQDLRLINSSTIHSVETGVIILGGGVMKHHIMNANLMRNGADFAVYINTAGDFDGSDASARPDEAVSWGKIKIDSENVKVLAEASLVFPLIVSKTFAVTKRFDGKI
Test: pull-down; Co-expression of His-EhDHS1 and EhDHS2-S-tag in E. coli BL21 (DE3); lysate (50 mM Tris-HCl pH 8.0, 300 mM NaCl, 10 mM imidazole, 0.1% Triton X-100) on Ni2+-NTA resin, 1 hr at 4°C; washed with 10-50 mM imidazole, eluted with 100-300 mM imidazole; immunoblot with anti-His and anti-S tag antibodies
Settings: partners not purified

B1: Entamoeba histolytica deoxyhypusine synthase 2 (EhDHS2) with carboxyl-terminal S-tag, co-expressed with EhDHS1 (natural protein, UniProt C4M2N7 1-336, looked up)
chain: MSITGEEFAKVTSKVLGESKEYKGEKCIGYDFDNGVDFNKVMEKMKYTGFQALNLGLCIEQVNEMRKNHAKIFLGMSSNIVSSGLREVIHYLVKNKFVDAIVVTAGGIEEDFIKTMHPTLLGDFYFKGKELYPNGYNRIGNLILPNSNYCEFEDWMDPLLLECLKEQNEHGVHWTPSKLVHKMGESINNESSIYYWAAKNNIPVFSPAITDGSIGDMIFFFSYKNEGLVLDLVQDVIKIDEMAFNAEKVGCLLVGAGIAKHHILNAMKRRGGCDYCAMLSTSIECDASDAGSEIAADRTKGFFKPECNPAKVIGDATILLPLIVASTFAQKEEPTK
notes: Deoxyhypusine synthase isotype 2 (EhDHS2) of Entamoeba histolytica, EHI_006030, XP_653426; stop codon removed to fuse the C-terminal S-tag of pETDuet; also called S-tag DHS2; EHI_006030; source: E. coli BL21 (DE3), co-expressed with EhDHS1 from pETDuet-EhDHS1/2; in lysate and copurified on Ni2+-NTA; not shown: S-tag, C-terminal, kept
stoichiometry N: 1 EhDHS1:EhDHS2
